The values that follow come from patent US20200340016.

What all share (assay): cell_activity
Series [1] has as its system ZFN pair SBS52742-ELD / SBS52774-KKR (TRAC) (artificial).
Series [2] concerns ZFN pair 52742-F1RQ;F3RQ;F5RQ / 52774 R(-5)Q in F1, F3 and F5 of 52742 (artificial). The conditions noted are these: 6 ug dose.
Series [3] has as its system ZFN pair SBS51857-ELD / SBS51949-KKR K448S K448S (FokI of 51949) (artificial). Conditions: 60 ug/mL each mRNA.
The subject of series [4] is ZFN pair SBS51857-ELD / SBS51949-KKR (BCL11A) (artificial).
Series [5] has as its system ZFN pair SBS51857-ELD / SBS51949-KKR R416S R416S (FokI of 51949) (artificial).
For series [6], the system named is ZFN pair SBS63014 / SBS65721 (3x R-5Q / 3x R-5Q + FokI R416S) three finger R(-5)Q in each ZFN; FokI R416S in 65721 (artificial). The conditions noted are these: 60 ug dose.
In series [7] the test system is ZFN pair SBS51857-ELD / SBS51949-KKR K525S K525S (FokI of 51949) (artificial). The conditions noted are these: 60 ug/mL each mRNA.
Series [8] concerns ZFN pair SBS51857-ELD / SBS51949-KKR R447S R447S (FokI of 51949) (artificial). Conditions: CD34+ cells, near background.
The subject of series [9] is ZFN pair SBS63014 / SBS65527 (3x R-5Q / 5x R-5Q + FokI R416S) three and five finger R(-5)Q; FokI R416S in 65527 (artificial). Conditions: 60 ug dose; no evidence of cleavage.
The test system of series [10] is ZFN pair SBS63014 / SBS65526 (3x R-5Q / 4x R-5Q + FokI R416S) three and four finger R(-5)Q; FokI R416S in 65526 (artificial). Conditions: 60 ug dose.
The test system of series [11] is ZFN pair 30035 / 30054 ELD_KKR_R416E R416E (FokI, both ZFNs) (artificial).
Series [12] concerns ZFN pair 30035 / 30054 ELD_KKR_K525P K525P (FokI, both ZFNs) (artificial).
Series [13] concerns ZFN pair 30035 / 30054 ELD_KKR_Q481E Q481E (FokI, both ZFNs) (artificial).
Series [14] relates to ZFN pair 30035 / 30054 (AAVS1) (artificial).
The subject of series [15] is ZFN pair 30035 / 30054 ELD_KKR_I479T I479T (FokI, both ZFNs) (artificial).
In series [16] the test system is ZFN pair 30035 / 30054 ELD_KKR_K525A K525A (FokI, both ZFNs) (artificial).
Series [17] has as its system ZFN pair 30035 / 30054 ELD_KKR_R416D R416D (FokI, both ZFNs) (artificial).
For series [18], the system named is ZFN pair 52742-ELD / 52774-KKR K387S K387S (FokI of 52774) (artificial). Conditions: 400 ng mRNA.
The subject of series [19] is ZFN pair 52742-ELD R447S / 52774-KKR R447S (FokI of 52742) (artificial). Conditions: 400 ng mRNA.
Series [20] relates to ZFN pair 52742-ELD / 52774-KKR K525S K525S (FokI of 52774) (artificial). The conditions noted are these: 400 ng mRNA.
Series [21] relates to ZFN pair 52742-ELD R422S / 52774-KKR R422S (FokI of 52742) (artificial). The conditions noted are these: 400 ng mRNA.
For series [22], the system named is ZFN pair 52742-ELD / 52774-KKR R416S R416S (FokI of 52774) (artificial). Conditions: 400 ng mRNA.
[23] abbreviates: CD34+ cells, 2 ug mRNA each ZFN.

“CCGGAGAGAAGGCTCCGGTTCAGCACTGAGATCAGGACGG (double strand) [off-target KXWACMTR (OT3)]”: the activity in [1] (6 ug dose) is 1.59 % indels; in series [2] (parent 1.59), 0.19 % indels.

With “CTTCCTGCGGGGTTTTGTGCAAATAACCCATGCTCGGGAGCGAGGCCCTGGGAAGGAGTATCTCGCTTCTTTGGGT (double strand) [off-target NIFMAEVG (OT1)]”, the activity in series [3] (parent 21.96) worked out at 8.9 % indels; in [4] (setting [23]) it was 9.04 % indels; in series [5] (setting [23]) it was 0.75 % indels; in [6] (parent 28.0), 0.55 % indels; in series [7] (parent 21.96) it was 0.89 % indels; in series [8], 0.05 % indels. Further, the values for the activity in series [9] and in series [10] were 0.03 % indels and 0.17 % indels, respectively.

Turning to AAVS1 intended target, the activity was found to be 91.1 % indels in [11]; 0.01 % indels in series [12]; 69.9 % indels in series [13]; 57.8 % indels in [14]; 52.5 % indels in series [15]; 73.8 % indels in series [16]. Moreover, the activity in [17] was 70.6 % indels.

Consider “TCCTCCATGCTCAGAAAGCCTTTCTTGGAGCCAGGCACACAGGAAATGTTAGCTAGTTAGCATTGGCTCTAATACT (double strand) [off-target PEVYOHIU (OT3)]”, for which the activity in series [3] was determined as 4.4 % indels; in series [4] (setting [23]) it was 0.65 % indels; in series [5] (setting [23]), 0.08 % indels; in [6] (parent 4.77), 0.04 % indels; in [7], 0.13 % indels; in series [8] it was 0.03 % indels. Also, the activity in series [9] and in series [10] (no evidence of cleavage) was 0.02 % indels in each case.

In the case of “TCAGTGATTGGGTTCCGAATCCTCCTCCTGAAAGTGGCCG (double strand) [TRAC intended target JBSCKVMP]”, the activity in series [1] (400 ng mRNA each ZFN) is 90.7 % indels; in [18], 89.1 % indels; in series [2] (parent 62.59) it was 70 % indels; in series [19], 70.3 % indels; in series [20], 88.3 % indels; in series [21] it was 89 % indels. In series [22], this substance returned an activity of 87.1 % indels.

Take “GACTCATTCATCCACTCATTCTGAGCACTTGCTGCACACTAGGCCCTGGGCTGGGGCTTCAGCCCAGGAGTTCACT (double strand) [off-target ZJCRPAXW (OT4)]”: the activity in [4] (60 ug/mL each mRNA) came out at 1.12 % indels; in series [5] (60 ug/mL each mRNA), 0.65 % indels.

Turning to “CCTACCCCCACCACCTCACCTTCCCTCAGCCTTGTGTTTCAGCCCCAGTTAGCTGCCCTTAGTTGCTGATGTATTG (double strand) [off-target GJZEIYTO (OT2)]”, the figures for the activity in series [4] (60 ug/mL each mRNA) and in series [5] (60 ug/mL each mRNA) were 2.81 % indels and 0.31 % indels, respectively.

For the substance “TGGCCCTTTGCAGAAAAGGTTGTTGAACCCTACCGTAAAC (double strand) [off-target XVFENVRX (OT11)]”, the activity in series [1] (400 ng mRNA each ZFN) came out at 5.82 % indels; in series [18] it was 3.27 % indels; in [2] (parent 4.32) it was 0.47 % indels; in series [19], 0.14 % indels; in series [20], 0.79 % indels; in series [21] it was 1.09 % indels. The activity in [22] was found to be 0.93 % indels.

“CCATATGCAGAAAACAGAAACTGTACCCCTTCCTTACACC (double strand) [off-target XSKWTVWD (OT16)]”: the activity in series [1] (400 ng mRNA each ZFN) amounted to 7.39 % indels; in series [18], 3.12 % indels; in series [2] (parent 19.16), 1.43 % indels; in series [19], 0.32 % indels; in series [20], 0.96 % indels; in series [21], 1.18 % indels. For the same substance, the activity in series [22] came to 0.74 % indels.
